Measurements as given in the nanobody polyreactivity screen of Harvey et al. (2022).

Assay: yeast display, Sf9 membrane polyspecificity reagent, FACS + sequencing; frameworks hold sequencing errors
In short: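 Synthetic nanobody libraries on Saccharomyces cerevisiae BJ5465 were galactose-induced for 36–48 hours, stained 1 hour at 4 °C with 10% biotinylated, detergent-solubilized Sf9 membrane reagent and enriched on streptavidin microbeads. FACS then separated cells into low and high (top ~1%) gates by anti-HA (expression) and streptavidin (reagent binding) fluorescence. Genes were colony-PCR amplified, MiSeq 2 × 250 sequenced and CDR-length filtered. A clone's polyreactivity label is that of its gate of origin.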

| Sequence | polyreactivity (PSR sort gate) |
| --- | --- |
| QVQLVDSGGGLVQAGGSLRLSCPASGSTFLVYAMGWYRQAPGKERELVAVITYSTVRTYYADSVKGRFTISRDNAKNTVYLQMNSLKPEDTAVYHCNADKEFAVLGQGMDFWGQGTQVTVSS | low polyreactivity |
| QVQLVDSGGGLVQAGGSLRLSCSASGIIFRYYTMVWYRQDPGKERELVASISRSGGNTYYADSVKGRFTISRDNAMNTVYLQMNSLKPEDTAVYYCAARRHQKYQESNYWGQGTQVTVSS | high polyreactivity |
| QVQLVDSGGGLVQAGGSLRLSFAASGNIIYQNAMGWDRQAPGKERELVAAISSGGSTNYADSVKGRFTISRDNAKITVYLQMNSLKPEDTAVYYCAAEHWTESVWDDSWGQGTQVTVSS | low polyreactivity |
| QVQLVDSGGGLVQAGGSLRLSSAASGRIFNRYAMGWYRQAPGKERELVAAITRGTRTNYADSVKGRFTISRDNAKNTVYLQMNSLKPEDTAVYYCAAAYGRGSDSDYWGQGTQVTVSS | high polyreactivity |
| QVQLVDSGGGLVQAGGSLRLSSPASGIIFTRYTMGCYSQEPGKERELVAAITTSGGRTYYADSVKGRFTISRDNAKNTVYLPMNSLKPEDTAVYYCDVSGHARYDYWGQGTQVTVSS | high polyreactivity |
| QVQLVDSGGGLVQAGGSLSLICAASGSNFRYYAMGWYRKAPGKERELVDAINWSGGSTYYADSVKGRFTSSRDNAKNTVYLQMNSLKPEHTAVYSCNAVGWRSLHRDYWGQGTQVTLSS | high polyreactivity |
| QVQLVDSGGGLVQAGGSLSLSCAASGRTFVTNAMGWYRQAPGKERELVAAISGNGGSTYYADSVKGRFTISRDNAKNTVYLQMNSLKPEDTAVYYCNKDYHVRYYYWGQGTQVTVSS | low polyreactivity |
| QVQLVDSGGGLVQARVNLRLSCRATGIIFYLYVMGWYRQSPGKDRELVAVISYSGDDTYYADSVQVRFTISRDNAKNTVYLQMISLKPEDTAVYYCADDSIGYGVDYWGQGTQVTVSS | low polyreactivity |
| QVQLVDSGGGLVQAVGSLRLSCAASGRTFRRYAMGWYRQAPGKERELVAAISRSGGSTYYADSVNGRFTISRDNAKNTVYLQMNSLKPEDTAVYYCAAGIWSKLVEPFDYCGQGTQVTVSS | high polyreactivity |
| QVQLVDSGGGLVQAVGSLRLSCAASGRTLGAYAMGWYRQAPGKEREFVARITYGGRTFYADSVKGRFTISRDNAKNTVYLQMNSLKPEDTAVYYCATKLPYRWYDYWGQGTQVTVSS | high polyreactivity |
| QVQLVDSGGGLVQEGGSLRLSCAASGNIFQTYDMGWYRQAHGKEREFVATITSSCARTYYADSVKGRFTISRDNAKNTVYVQMNCLKPEDTAVDYCNRVWSYANGYWGHGTQVTVSS | high polyreactivity |
| QVQLVDSGGRLVHAGGSLRLSCAASGRTIYRNAMGLYRQAPGKERELVAAISSDDSTNYSDSVKGRFTISRDNAKNTVYFQMNSLKPEDTAVYYCNADYYYGYDYDYWGQGSQVTVSS | low polyreactivity |
| QVQLVDSGRGLFQAGGSLRLSCAASGRTSSSNVMGWYRQAPGKERELVASINEGGNTYYADSVKGRFTISRDNATNTVYLQMNSLKPEDTAVYYCATEESGYSSWYGYGYSYDYWGQGTQVTVSS | low polyreactivity |
| QVQLVDSGRGLVQAGGSLRLSCAASGSTFRWNAMGWYRQAPGKERELVAAIDNSGTSTYYADSVKGRFTISRDNAKNTVYLQMNSLKPDDTAVYYCNVRISNTAYRYPTFDYWGQGTQVTVSS | low polyreactivity |
| QVQLVDSVGGLVKAGCSLRLSCAASGSTLPVNAKGCYRQAPGKERELVAAINRDGSTIYADSVKRPFTISRDIAKNTVYLKMNRLKPEDTAVYYCAADGFGYPGKRYDFWGQGTQVTVSS | low polyreactivity |
| QVQLVDSVGGLVQAGGSLRLSCAASGSIFGYYAMAWYRQAPGKERELFASITRSGDTTYYADSVKGRFTISRDNANNTVFLQMNSLKQEDTAVSYCAARRWRWYYDGFVRMDYWGQGTQVTVSS | high polyreactivity |

| Sequence | polyreactivity (PSR sort gate) |
| --- | --- |
| QVQLVEACGGLVQAGGSLRLICAASGNIFAYNAMGWYRQAPGKERELVAAISVIGGTTYYADSVKGRFTISRDNAKNTVYLQMNSLKPEDTAVYSCSVDSVQYGGGYERLHELYYWGQGTQVTVSS | low polyreactivity |
| QVQLVEAGGCLVHAGGSLRLSCAASGRIFVGNAMGWYRQAPGKERELVAAINNGGTTYYADSVKGRFTIARDNGKNTVYLQMNSLKPEDTAVYHCAATPYRGTRSYLIGELDYWGQGTQVTVSS | low polyreactivity |
| QVQLVEAGGGLVQAGGRLRLSCAASGRIFGRTAMGWYRQAPGKERELGAAIRRSSASTYYADSVKGRFTISRDNAKNTFYLQMNSLKPEDTAVYYCATQSYSYYGYRYRYAAFDYWGQGTQVTVSS | high polyreactivity |
| QVQLVEAGGGLVQAGGRLRLSSAASGNIFIWYALGWYRQAPGKERELVAAIRWSGGGTYYADSVKGRFTISRDNAKNTVYFQMNSLKPEDTAVYYCAAESSASWYNFWGYEYWGQGTQVTVSS | high polyreactivity |
| QVQLVEAGGGLVQAGGSLRFSCAASGSLFRWYAMGWYRQAPGKERELVAAINRGGDSTYYADSVKGRFTISRDNAKNTVYLQMNSLKPEDTAVYYCNAVSSWKLLYSSYDSWGQGTQVTVSS | high polyreactivity |
| QVQLVEAGGGLVQAGGSLRLIFASSGSTLYLYVMVWYRQAPGKESELVDVISSSSGRTYYADSVKGRFTISRDNAKNSVYLQMNSLKPEDTAVYYCAADNYVGYHWYNYWGQGTQVTVSS | high polyreactivity |
| QVQLVEAGGGLVQAGGSLRLSCAASGRIFVYYTMGWYRQAPGKERELVAAIIGGGSTNYADSVKGRFTISRDNAKNTVYLQMNSLKPEDTAVYDCAAVRYRYSYVSHSRIYDYWGQGTQVTVSS | high polyreactivity |
| QVQLVEAGGGLVQAGGSLRLSCAASGRIFYYYAMGWYSQAPGKEREFVAAIRISGGSKNYADSVKGRFTISRDNAKNNVYLQMNSLKPEETAVYYSAARSKYSGIRRAYDYWGQGTQVTVSS | high polyreactivity |
| QVQLVEAGGGLVQAGGSLRLSCAASGRIIIYNAMGWYRQPPGKERELVAAISSTGGSTNYADSVKGRFTISRDNAMNSVYLQMNSLKPEDTAVYYCNALPGRASLRYNYWGQGTQVTVSS | high polyreactivity |
| QVQLVEAGGGLVQAGGSLRLSCAASGRISYTYAMGWYRQAPGNERELVAAITDGGSTTYADSVKGRFTISRDNAKNTVYLQMNSLKPEDTAVYYCNADTDSAKSPAYYYWGQGTQVTVSS | low polyreactivity |
| QVQLVEAGGGLVQAGGSLRLSCGASGRIFQSNAMGGYRLAPGKERELVAAISKSGGSTYYADSVKGRFTISRDNAKNTVYLQMNSLKPEDPAVYYCAAYPPRRMYYWGQGTQVTVSS | high polyreactivity |
| QVQLVEAGGGLVQAGGSLRLSGAASGYTFGGNAMGWYRPAPGKERELVAGITWTGGTTYYADSVKGRFTISRDNAKNTVYLQMNSLKPEETAVYYCNASLDSQDGDYWGQGTQVTVSS | low polyreactivity |
| QVQLVEAGGGLVQAGVSLRLSCAASGIIFGSYAMGWYRQAPGKERELVATISYDGGSTYYADSVKGRFTISRDNAKNTVYLQMKSLKPDDTAVSYCAAVYQSWFGLRSYYYWGQGTQVTVSS | high polyreactivity |
| QVQLVEAGGGLVQAGVSLRLSCAASGLTFVPNAMGWYRQAPGKERELVAAISNNGGRTYYADSVKGRFTISRDNAKNTVYLQMNSLKPEDTAVYYCAKYLSPGERHSYDYWGQGTQVTVSS | high polyreactivity |
| QVQLVEAGRGLVHAGGSLRLSCDPSGLTFSRYAMGWYRPAPGKESELVPAISSRGGTTYYADSVKGRFTISRDYAKNTVYLQMYSMKPEDTAVYYCAAGYITWGSGNWVVTPYDVWGQGTQVTVSS | high polyreactivity |
| QVQLVEKGGGLVQAGGSLRLICAASGYIIWPNAMGWYRQAPGKERELVASITRAGSTNYADSVKGRFTISRDNAKNTVYLQMNSLKPEDTAVYYSAAYFWGGYNYWGQGTQVTVSS | low polyreactivity |
